Target: T1, full-length His-tagged cIAP2 (UniProt Q13489 1-604)
T1 construct: also called His-cIAP2; source: E. coli BL21 (DE3), purified (Ni-NTA)
Test: pull-down; in vitro dimerization assay: purified His-cIAP2 and GST-BUCR with HAX1 or HAX1N (0, 0.5 and 5 μg), preincubated at 4°C for 30 min; Ni-NTA agarose, 4 h at 4°C; 20 mM HEPES, 100 mM NaCl, 5% glycerol, 0.1 mg BSA, 0.1% Triton X-100; blots with anti-His and anti-GST; more complex with HAX1, no effect of HAX1N
Details: both partners purified

binding result: binds
B1: GST-tagged cIAP2 fragment (GST-BUCR) (domain or fragment, UniProt Q13489 251-604, looked up)
chain: SMQTHAARFKTFFNWPSSVLVNPEQLASAGFYYVGNSDDVKCFCCDGGLRCWESGDDPWVQHAKWFPRCEYLIRIKGQEFIRQVQASYPHLLEQLLSTSDSPGDENAESSIIHFEPGEDHSEDAIMMNTPVINAAVEMGFSRSLVKQTVQRKILATGENYRLVNDLVLDLLNAEDEIREEERERATEEKESNDLLLIRKNRMALFQHLTCVIPILDSLLTAGIINEQEHDVIKQKTQTSLQARELIDTILVKGNIAATVFRNSLQEAEAVLYEHLFVQQDIKYIPTEDVSDLPVEEQLRRLQEERTCKVCMDKEVSIVFIPCGHLVVCKDCAPSLRKCPICRSTIKGTVRTFLS
notes: cIAP2 residues 251-604 (printed as BUCT in the methods, BUCR in the results), cloned into the GST-tagged vector pGEX-6p-1; also called BUCT (a.a 251–604); source: E. coli BL21 (DE3), purified (glutathione-Sepharose 4B)

From PMC4259407, “HAX1 regulates E3 ubiquitin ligase activity of cIAPs by promoting their dimerization” (Oncotarget, 2014)
